Measured values as given in patent US8461305B2, “L-fucose α1→6 specific lectin” (J-Oil Mills, Inc., priority 2008, dated 2013).

Columns and labels:
[1] = frontal affinity chromatography (FAC), association constant to PA sugar chains without L-fucose; type: binding; conditions: 25 degrees C.
Outline: (§1)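 Lectin coupled via primary amines to NHS-activated sepharose in a miniature column, run in TBS (pH 7.4) at 0.125 ml/min and 25 degrees C. PA sugar chains (3.75 nM or 7.5 nM) applied in excess, with elution monitored by fluorescence (ex 310/em 380 nm). Ka calculated from front-end delay (V−Vo) versus PA rhamnose and effective ligand amount (Bt).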

[2] = frontal affinity chromatography (FAC), association constant to PA sugar chains having other L-fucose; type: binding; conditions: 25 degrees C.
Outline: as §1

Measured: association constant Ka

B1: Lens culinaris agglutinin (protein)
chain 1: TETTSFSITKFSPDQKNLIFQGDGYTTKGKLTLTKAVKSTVGRALYSTPIHIWDRDTGNVANFVTSFTFVIDAPSSYNVADEFTFFIAPVDTKPQTGGGYLGVFNSKEYDKTSQTVAVEFDTFYNAAWDPSNKERHIGIDVNSIKSVNTKSWNLQNGERANVVIAFNAATNVLTVTLTYP
chain 2: VTSYTLNEVVPLKDVVPEWVRIGFSATTGAEFAAHEVHSWSFHSELGGTSSS
13000 M⁻¹: [1]; Sugar chain No. 010
14000 M⁻¹: [1]; Sugar chain No. 006 | [1]; Sugar chain No. 011
<1000 M⁻¹: [1]; Sugar chain No. 001 | [1]; Sugar chain No. 002 | [1]; Sugar chain No. 004 | [1]; Sugar chain No. 005 | [1]; Sugar chain No. 007 | [1]; Sugar chain No. 101 | [1]; Sugar chain No. 103 | [1]; Sugar chain No. 104 | [1]; Sugar chain No. 105 | [1]; Sugar chain No. 107 | [1]; Sugar chain No. 108 | [1]; Sugar chain No. 301 | [1]; Sugar chain No. 304 | [1]; Sugar chain No. 305 | [1]; Sugar chain No. 307 | [1]; Sugar chain No. 308 | [1]; Sugar chain No. 313 | [1]; Sugar chain No. 314 | [1]; Sugar chain No. 323 | [1]; Sugar chain No. 501 | [1]; Sugar chain No. 502 | [1]; Sugar chain No. 503 | [1]; Sugar chain No. 504 | [1]; Sugar chain No. 701 | [1]; Sugar chain No. 702 | [1]; Sugar chain No. 703 | [1]; Sugar chain No. 704 | [1]; Sugar chain No. 705 | [1]; Sugar chain No. 706 | [1]; Sugar chain No. 707 | [1]; Sugar chain No. 708 | [1]; Sugar chain No. 709 | [1]; Sugar chain No. 710 | [1]; Sugar chain No. 711 | [1]; Sugar chain No. 712 | [1]; Sugar chain No. 713 | [1]; Sugar chain No. 715 | [1]; Sugar chain No. 716 | [1]; Sugar chain No. 717 | [1]; Sugar chain No. 724 | [1]; Sugar chain No. 725 | [1]; Sugar chain No. 728 (as listed in Table 7) | [1]; Sugar chain No. 732 | [1]; Sugar chain No. 733 | [1]; Sugar chain No. 734 | [1]; Sugar chain No. 735 | [1]; Sugar chain No. 736 | [1]; Sugar chain No. 737 | [1]; Sugar chain No. 738 | [1]; Sugar chain No. 901 | [1]; Sugar chain No. 902 | [1]; Sugar chain No. 903 | [1]; Sugar chain No. 905 | [1]; Sugar chain No. 906 | [1]; Sugar chain No. 907 | [2]; Sugar chain No. 419 | [2]; Sugar chain No. 420 | [2]; Sugar chain No. 718 | [2]; Sugar chain No. 719 | [2]; Sugar chain No. 720 | [2]; Sugar chain No. 721 | [2]; Sugar chain No. 722 | [2]; Sugar chain No. 723 | [2]; Sugar chain No. 726 | [2]; Sugar chain No. 727 | [2]; Sugar chain No. 728 (as listed in Table 5/12) | [2]; Sugar chain No. 729 | [2]; Sugar chain No. 730 | [2]; Sugar chain No. 731 | [2]; Sugar chain No. 739 | [2]; Sugar chain No. 909 | [2]; Sugar chain No. 910 | [2]; Sugar chain No. 931 | [2]; Sugar chain No. 932 | [2]; Sugar chain No. 933
7200 M⁻¹: [1]; Sugar chain No. 003
18000 M⁻¹: [1]; Sugar chain No. 008 | [1]; Sugar chain No. 009
25000 M⁻¹: [1]; Sugar chain No. 012
17000 M⁻¹: [1]; Sugar chain No. 013 | [1]; Sugar chain No. 014
